This note sets out measurements from PMC8396340.

The target of this data set is Transferrin receptor 1 (TfR, CD71) (Homo sapiens) (UniProt P02786). Kind of data set: flow cytometry cell binding. The settings on record: 5 mM Mg2+, PBS, 4.5 g/L glucose, 5 mM MgCl2, 1 mg/mL BSA, 0.1 mg/mL herring sperm DNA, 30 min on ice (4 C), intact cells. For orientation: Flow cytometry measures light scatter and fluorescence of single cells or particles in a stream.

[1] abbreviates: HCT-8T cells (cell line inferred).

UniProt P02786, sequence (P02786 whole entry): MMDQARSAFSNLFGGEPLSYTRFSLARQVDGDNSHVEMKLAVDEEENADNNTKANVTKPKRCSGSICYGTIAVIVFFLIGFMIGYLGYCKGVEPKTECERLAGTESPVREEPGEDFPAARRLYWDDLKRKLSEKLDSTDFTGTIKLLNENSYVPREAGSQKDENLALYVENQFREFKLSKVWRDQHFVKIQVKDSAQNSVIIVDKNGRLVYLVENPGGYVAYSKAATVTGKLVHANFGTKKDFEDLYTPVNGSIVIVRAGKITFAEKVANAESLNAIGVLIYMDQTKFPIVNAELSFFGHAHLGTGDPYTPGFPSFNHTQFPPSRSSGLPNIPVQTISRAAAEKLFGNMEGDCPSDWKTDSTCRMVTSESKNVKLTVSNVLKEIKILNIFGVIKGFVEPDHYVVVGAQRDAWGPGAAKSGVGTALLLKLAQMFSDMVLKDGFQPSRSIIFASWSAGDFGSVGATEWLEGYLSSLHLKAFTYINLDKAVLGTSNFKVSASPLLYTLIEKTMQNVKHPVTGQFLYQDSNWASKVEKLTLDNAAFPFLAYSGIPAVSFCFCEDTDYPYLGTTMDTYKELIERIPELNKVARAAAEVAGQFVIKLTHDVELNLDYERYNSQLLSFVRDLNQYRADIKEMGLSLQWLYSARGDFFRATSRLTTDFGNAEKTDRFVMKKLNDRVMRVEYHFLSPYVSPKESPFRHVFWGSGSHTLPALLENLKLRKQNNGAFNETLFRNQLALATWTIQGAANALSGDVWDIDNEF

What is called Kd is the equilibrium constant for the complex coming apart. A high value points to a looser complex. Turning to “AAGGAGCAGCGTGGAGGATAGGGATTCTGTTGGTCGGCTGGTTGGTATCCTTAGGGTGTGTCGTCGTGGT [HG1]”, under setting [1], the Kd was 6.48 nM.
Consider “GGATAGGGATTCTGTTGGTCGGCTGGTTGGTATCC [HG1-9]”, for which the Kd came to 5.4 nM under setting [1], 19.8 nM (HeLa cells) and 11 nM (Jurkat cells).
